Assay results taken from the nanobody polyreactivity screen of Harvey et al. (2022).

Experiment: yeast display, Sf9 membrane polyspecificity reagent, FACS + sequencing; frameworks hold sequencing errors
Summary of the method: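 Synthetic nanobody libraries on Saccharomyces cerevisiae BJ5465 were galactose-induced for 36–48 hours, stained 1 hour at 4 °C with 10% biotinylated, detergent-solubilized Sf9 membrane reagent and enriched on streptavidin microbeads. FACS then separated cells into low and high (top ~1%) gates by anti-HA (expression) and streptavidin (reagent binding) fluorescence. Genes were colony-PCR amplified, MiSeq 2 × 250 sequenced and CDR-length filtered. A clone's polyreactivity label is that of its gate of origin.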

Row | Sequence | polyreactivity (PSR sort gate)
1 | QVQLVESGGGLVQAGGSLRLSCAASGRTLERYSMGWYRQAPGKEREFVAAIRWSGGSTYYADSVKGRFTISRDNAKNTVYLQMNSLKPEDTAVYYCNADWQSYYWAGDGYDYWGQGTQVTVSS | low polyreactivity
2 | QVQLVESGGGLVQAGGSLRLSCAASGRTLFGYAMGWYRQAPGKERELVAAITYGATSTYAHSVKGRFTISRDNAKNTVYLQMNSLKPEDTAVYYCNAYTPTDGFDYWGQGTQVTVSS | low polyreactivity
3 | QVQLVESGGGLVQAGGSLRLSCAASGRTLFSNAMGWYRQAPGKERELVASITSGDSTYYADSVKGRFTISRDNAKNTVYLQMNSLKPEDTSVYYCAADPSIVDGEYGYWGQGTQVTVSS | low polyreactivity
4 | QVQLVESGGGLVQAGGSLRLSCAASGRTLFYYTMGWYRQAPGKERELVAAISSGDSTNYADSVKGRFTISRDNAKNTVYLQMNRLKPEDTAVYYCATQYLLDYKKTYRTYYSPYDYWGQGTQVTVSS | low polyreactivity
5 | QVQLVESGGGLVQAGGSLRLSCAASGRTLGANAMGWYRQAPGKEREFVAAISYSDTRTYADSVKGRFTISRDNAKNTVYFQMNSLKPEDTAVYYCAADYYTWYGILYDYWGQGTQVTVSS | low polyreactivity
6 | QVQLVESGGGLVQAGGSLRLSCAASGRTLGPNPMGWYRPAPGKERELVAAITYNAGSTYYADSVKGRFTISRDNAKNTVYLQMNSLKPEDTAVYYCAARSTQKWTKYYYWGQGTQVTVSS | high polyreactivity
7 | QVQLVESGGGLVQAGGSLRLSCAASGRTLGQNAMGWYRQAPGKERELVASIRSGGITDYADSVKGRFTISRDNAKNTVYLQMNCLKPEDTAVYYCAADTYGYQGSAGGHWGQGTQVTVSS | low polyreactivity
8 | QVQLVESGGGLVQAGGSLRLSCAASGRTLGQYEMGWYRQAPGTERELVAAITSSDGITYYADSVKGRFTISRDNAKNTVYLQMNSLKPEDTAVYYCASDYPYYWYWTYLYDYCGQGTQVTVSS | low polyreactivity
9 | QVQLVESGGGLVQAGGSLRLSCAASGRTLGVYAMGWYRPAPGKERELVATITAGGSITSYADSVKGRFTISRDNAKNTVYLQMNSLKPEDTAVYYCAADVPGNYRKYRYGRASSHDYWGQGTQVTVSS | low polyreactivity
10 | QVQLVESGGGLVQAGGSLRLSCAASGRTLGYKAMVWYRQAPGKERELVAAISWSGGATYYADSVKGRFTISRDNAKNTVYLQMNSLKPEDTAVYYCAALNNRYPLYNYWGQGTQVTVSS | low polyreactivity
11 | QVQLVESGGGLVQAGGSLRLSCAASGRTLHANTMGMYRQAPGKERELVAAITRGGGNTYYADSVKGRFTISRDNAKNTVYLQMNSLKPEDTAVYYCNADVSGYLWYEYDYWGQGTQVTVSS | low polyreactivity
12 | QVQLVESGGGLVQAGGSLRLSCAASGRTLHSYAMGWYRQAPGKERELVAAISGGASTYADSVKGRFTISRDNAMITVYFQMNSLKPEDTAVYYCAADDDPVPTYEYDVWGQGTQVTVSS | low polyreactivity
13 | QVQLVESGGGLVQAGGSLRLSCAASGRTLHYYAMGWYRQAPGKERELVARINWSGGSTYYADSVKGRFTISRDNAKNTVYLQMNSLKPEDTAVYYCARTSYYWSSFDYWGQGTQVTVSS | high polyreactivity
14 | QVQLVESGGGLVQAGGSLRLSCAASGRTLIGNAMGWYRQAPGKEREFVAAITRSGGDTYYADSVKGRFTISRDNAKNTVYLQMNSLKPEDTAVYYCAADGQLHMDYWGQGTQVTVSS | high polyreactivity
15 | QVQLVESGGGLVQAGGSLRLSCAASGRTLKLNAMGWYRQAPGKERELVAAISWRGGSTYYADSVKGRFTISRDNAKNTVYLQMNSLKPEDTAVYYCAAEATAGFWSYGTYDYWGQGTQVTVSS | high polyreactivity
16 | QVQLVESGGGLVQAGGSLRLSCAASGRTLKTYVMGWYRQAPGKERELVAAITSGGRTYYADSVKGRFTISRDNAKNTVYVQMNSLKPEDTAVYYCNAQLYWSRSWYLFDNTSFDYWGQGTQVTVSS | low polyreactivity
17 | QVQLVESGGGLVQAGGSLRLSCAASGRTLKYNAMGWYRQAPGKERELVAAISYSGSSTYYADSVKWRFTISRDNAKNTVYLQMNSLKPEDNAVYYCNSARPTAAYDYWGQGTQVTVSS | low polyreactivity
18 | QVQLVESGGGLVQAGGSLRLSCAASGRTLKYNVMGWYRQAPGKERELVASITSRGGSTRYADSVKGRFTISRDNAKNTVYLLMNSLKPEDTAVYYCAARYTTARSSYDYWGQGTQVTVSS | high polyreactivity
19 | QVQLVESGGGLVQAGGSLRLSCAASGRTLPIYAMGWYRQAPGKERELVAAISWSGASTYADSVKGRFTISRDNAKYTVYLQMNSLKPEDTAVYYCAAYYESWYSSYGYGYWGQGTQVTVSS | low polyreactivity
20 | QVQLVESGGGLVQAGGSLRLSCAASGRTLPPNAMGWYRQAPGKERELVAGITWSGGSTYYADSVKGRFTISRDNAKNTVYLQMNSLKPEDTAVYYCAASRSFPGYGLYYYWGQGTQVTVSS | low polyreactivity
21 | QVQLVESGGGLVQAGGSLRLSCAASGRTLPYYMGWYRQAPGKERELVAAITNGDSTYYADSVKGRFTISRDNAKNTVYLQMNSLKPEDTAVYYCNVVTYVKYGYWGQGTQVTVSS | high polyreactivity
22 | QVQLVESGGGLVQAGGSLRLSCAASGRTLQGYAMGWYRQAPGKERELVAAISRGGGSTYADSVKGRFTISRDNAKNTVYLQMNSLKPEDTAVYYCNKKSYYRYYWGQGTQVTVSS | high polyreactivity

Row | Sequence | polyreactivity (PSR sort gate)
23 | QVQLVESGGGLVQAGGSLRLSCAASGRTLQTYVMGWYRQAPGKERELVAAITRGGGSTYYADSVKGRFTISRDNGKNTVFLQMNSLKPVDTSVYYCAASALRFNSRFSHWYIYWGQGTQVTVSS | high polyreactivity
24 | QVQLVESGGGLVQAGGSLRLSCAASGRTLRGNAMGWYRQAPGKERELVAVITRRGGSTYYADSVKGRFTISRDNAKNTFYLQMNSLKPEDTAVYYCAAVPYYYKYDYWGQGTQVTVSS | high polyreactivity
25 | QVQLVESGGGLVQAGGSLRLSCAASGRTLRIYAMGWYRQAPGKERELVAAITSSGRTNYADSVKGRFTISRDNAKNTVYLQMNSLKPEDTAVYYCAAVTPAVNYFRAASGYYYWGQGTQVTVSS | low polyreactivity
26 | QVQLVESGGGLVQAGGSLRLSCAASGRTLRRYAMGWYRQAPGKERELVAGISRNGGSTYYADSVKGRFTISRDNAKNTVYLQMNSLKPEDTAVYYCNADDKAQSDYWGQGTQVTVSS | high polyreactivity
27 | QVQLVESGGGLVQAGGSLRLSCAASGRTLRWYAMGWYRQAPGKERELVAAITWRGGSTRYADSVKGRFTISRDNAKNTVYLQMNSLKPEDTAVYYCNKYYYRTIEGDYWGQGTQVTVSS | high polyreactivity
28 | QVQLVESGGGLVQAGGSLRLSCAASGRTLRWYTMGGYRQAPGEERELVAAISSSGGSTYYADSVKGRFTISRDNAKNTVYLQMNSLKPEDTAVYYCARDRRLREYDYWGQGTQVTVSS | low polyreactivity
29 | QVQLVESGGGLVQAGGSLRLSCAASGRTLRYYAMGRYIQAPGKERELVAIITSTGSTYYADSVKGRFTISRDNAKNTVYLQMNSLKPEDTAVYYCNRVISVSLDYLGENYWGQGTQVTVSS | high polyreactivity
30 | QVQLVESGGGLVQAGGSLRLSCAASGRTLRYYAMGWYRQAPGKERELVAAITKSGGSTYYADSVKGRFTISRDNAKNTVYLQMNSLKPEDTAVYYCNKVTYSRAQYIGGDGYYWGLGTQVTVSS | high polyreactivity
31 | QVQLVESGGGLVQAGGSLRLSCAASGRTLSANAMGWYRQAPGKERELVATNSTRGGRTYYADSVKGRFTISRDNAKNTVYLQMNSLKPEDTAVYYCAVTIRAKYTLKEDYWGQGTQVTVSS | low polyreactivity
32 | QVQLVESGGGLVQAGGSLRLSCAASGRTLSGNAMGWYRPAPGKERELVATITSDGGDTYYADSVKGRFTISRDNPKNTVYLQMNILKPEDTAVYYCNADYAGPKYVGYTFRSFTMDYWGQGTQVTVSS | low polyreactivity
33 | QVQLVESGGGLVQAGGSLRLSCAASGRTLSGYVMGWYRQAPGKERELVATISNGGSTYYADSVKGRFTISRDNAKNTVYLQMNSLKPEDTAVYYCNRYWYRKHSTDPPVRYRPVGYWGQGTQVTVSS | high polyreactivity
34 | QVQLVESGGGLVQAGGSLRLSCAASGRTLSLYAMGWYRQAPGKEMELVANISNSGGSTDYADSVKGRFTISRDNAKNTVYLQMNSLKPEDTAVYYCAADANSWFTSYQVYGSEFDYWGQGTQVTVSS | low polyreactivity
35 | QVQLVESGGGLVQAGGSLRLSCAASGRTLSVYAMGWYRQAPGKERELLAAITIRGGRTYYADSVKGRFTISRDNAKNTVYLQMNSLKPEDTAVYYCAAPPYVKMDYWGQGTQVTVSS | high polyreactivity
36 | QVQLVESGGGLVQAGGSLRLSCAASGRTLSWYAMGWYRQAPGKEREFVAAITSSGASTYYADSVKGRFTISRDNAKNTVYLQMNSLKPEDTAVYYCAAKMRGYPRRRYDYCGQGTQVTVSS | high polyreactivity
37 | QVQLVESGGGLVQAGGSLRLSCAASGRTLSYYAMGWYRQAPGKEREFVAAINWSGGSTYYADSVKGRFTISRDNAKNTVYLQMNSLKPEDTAVYYCAAYRPYSSSEGDYWGQGTQVTVSS | high polyreactivity
38 | QVQLVESGGGLVQAGGSLRLSCAASGRTLVINVMGWYRQAPGKERELVAAISFRSGNTYYADSVKGRFTISRDNAKNTVYLQMNSLKPEDTAVYYCAAYTYRTSTTSSYYYWGQGTQVTVSS | high polyreactivity
39 | QVQLVESGGGLVQAGGSLRLSCAASGRTLYGYAMGWYRQAPGKERELVARITGRDGSTDYADSVKGRFTISRDNAKNTVYLQMNSLKPEDTAVYYCNARVRFHWYRSDYWGQGTQVTVSS | high polyreactivity
40 | QVQLVESGGGLVQAGGSLRLSCAASGRTLYIYAMGWYREAPGKERELVAAITNGGTTYADSVKGRFTISRDNAKNTVYLQINSLKPEDTAVYYCNADLRVSRITQYEYWGQGTQVTVSS | low polyreactivity
41 | QVQLVESGGGLVQAGGSLRLSCAASGRTLYKYAMGWYRQAPGKERELVAAISRNGGSTYYADSVKGRFTISRDNAKNTVYLQMNSLKPEDTAVYYCNKRWGYQYLWVADYDYWGQGTQVTVSS | high polyreactivity
42 | QVQLVESGGGLVQAGGSLRLSCAASGRTLYLNAMRWNRQPQRKERELVAISSGGSTYYADSVKGRFTISRDNAKNTVYLQMNSLKPEDTAVYYCNADEHYHFGYVFWYAYDYWGQGTQVTVSS | low polyreactivity
43 | QVQLVESGGGLVQAGGSLRLSCAASGRTLYTNAMGWYRQAPGKERELVAAITSGASTNYADSVKGRFTISRDNAKNSVYLQMNSLKPEDTSVYYCASRTYHLWNARRYDYWGQGTQVTVSS | low polyreactivity
